The source of these data is patent publication US7625733B2, “Isolation of quiescin-sulfhydryl oxidase from milk” (University of Delaware, priority 2007, dated 2009).

By Km is commonly meant the substrate concentration at which the rate is half of its maximum. What is called kcat is the maximal rate divided by the concentration of active sites.

For data set [1] the following is noted: substrate GSH, data from Hoober et al. 1999, cited from earlier work.
Data set [2] relates to reduced RNase (rRNase). Conditions: substrate rRNase, data from Hoober et al. 1999, cited from earlier work.
The conditions of data set [3]: substrate DTT, data from Hoober et al. 1999, cited from earlier work.
In data set [4] the test system is reduced RNase (rRNase). The data set can be described thus: Oxidation of reduced RNase by QSOX1. The class given is biochemical. The protocol: (§1) Oxygen electrode assays were performed in duplicate at 25° C. as described in K. L. Hoober, et al., J. Biol. Chem. 271: 30510-30516, 1996. Assays were initiated by the addition of 5 mM DTT or reduced glutathione (GSH). All thiol substrates were standardized with DTNB before use. Reduced RNase was prepared, characterized and stored as described in K. L. Hoober, et al., J. Biol. Chem. 271: 30510-30516, 1996. Assays of the oxidation of reduced RNase were performed as described by K. L. Hoober et al., J. Biol. Chem. 274: 22147-22150.

A short description of data set [5]: Oxygen electrode assay, oxidation of reduced glutathione by QSOX1. It is filed as biochemical. Particulars: substrate GSH, 25° C., 50 mM phosphate buffer, pH 7.5, 1 mM EDTA. The protocol:
as §1

Data set [6] in a line: Inhibition of sulfhydryl oxidase activity by EDTA. It is filed as biochemical. Conditions: purified QSOX1 from milk.
The nature of data set [7]: Oxygen electrode assay, oxidation of dithiothreitol by QSOX1. It is filed as biochemical. Particulars: substrate DTT, 25° C., 50 mM phosphate buffer, pH 7.5, 1 mM EDTA. The protocol: as §1
Data set [8] is described as follows: Stimulation of sulfhydryl oxidase activity by added ferrous iron. It is filed as biochemical. Conditions: purified QSOX1 from milk.

Where two headings read alike, the source gives them in different places.

B1: Egg QSOX1: Avian QSOX1 isolated from egg white; data from Hoober et al. 1999 (protein, UniProt Q8JGM4 43-743, looked up)
Sulfhydryl oxidase 1: RSLYSPSDPLELLGADTAERRLLGSPSAWAVEFFASWCGHCIHFAPTWRALAEDVREWRPAVMIAALDCADEANQQVCADFGITGFPTLKFFRAFSKKAEDGIRIAHPTATVADLRRAIITNLEQSGDAWPPACPPLEPASAEEVRSFFHRNTERYLALIFEQSNSFVGREVALDLLQYENVAVRRVLSSEEELVEKFGVTTFPSAYLLLRNGSFSRLPVHAEARSFYTYYLQTLSGVTRGSYRLNVTGSAINETRALQPAQADRSKVYVADLESTVHYTLRVEAGRPAVLAGAQLAALKCYVATLAKYFPGRPSVQTFLQSLDSWLRNWTEPELPRSALKEAVKNKEDASPAAVLPTNVTWVGCRGSEPHFRGYPCGLWTIFHLLTVQAAQGGPDEELPLEVLNTMRCYVKHFFGCQECAQHFEAMAAKSMDQVKSRREAVLWLWSHHNEVNARLAGGDTEDPQFPKLQWPPPDMCPQCHREERGVHTWDEAAVLSFLKEHFSLGNLYLDHAIPIPMAGEEAAASARLSTAGLREKEEEERKEEEEEGEKETEKPHREGETGRPGSSELRRPSIVRRNPRLRALGEDIVDLDSFSEQHFKSKALRAAGRHRRLSKRDTVALHHDAGWERLQVPESREEEEEGGVLRRSPWLRVLGLGFSRLDVSLCIALYFLSSMCLLGMYTFFRLRTRARKGRPGFPVA
Turning to B1, the Km was 20000 µM in data set [1], 115 µM in data set [2] and 150 µM in data set [3]. The values for the kcat in data set [1] (thiols oxidized per minute), in data set [2] (thiols oxidized per minute) and in data set [3] (thiols oxidized per minute) were 46.33 s⁻¹, 20.33 s⁻¹ and 34.33 s⁻¹, respectively.

B2: Milk QSOX1: Flavin-dependent quiescin Q6 sulfhydryl oxidase 1 isolated and purified from bovine milk, amino acid sequence SEQ ID NO:1 (protein, listed as Bos taurus)
chain: SALYSSSDPLTLLRADTVRSTVLGSSSAWAVEFFASWCGHCIAFAPTWKALANDVKDWRPALNLAALDCAEETNSAVCRDFNIPGFPTVRFFKAFSKTGSGTTLSVAGADVQTLRERLIDALESHSDTWPPACPPLEPARLEEITGFFARNNEEYLALIFEKEGSYLGREVTLDLSQHQGIAVRRVLNTERDVVNRFGVTNFPSCYLLSRNGSFSRVPALTESRSFYTTYLRKFSGSTRGAVQTTAAPATTSAVAPTVWKVADRSKIYMADLESALHYILRIEVGKFSVLEGQRLVALKKFMAVLAKYFRGRPLVQNFLHSMNDWLKKQQRKKIPYGFFKNALDSRKEGTVIAEKVNWVGCQGSEPHFRGFPCSLWILFHFLTVQAAQEGVDHPQERAKAQEVLQAIRGYVRFFFGCRECAGHFEQMASGSMHRVGSLNSAVLWFWSSHNKVNARLAGAPSEDPQFPKVQWPPRELCSACHNELRGTPVWDLDNILKFLKTHFSPSNIVLDFPSAGPGPWR
As for B2, the “catalytic efficiency relative to egg white QSOX1” value in data set [4] (oxidation of reduced pancreatic RNase) is “two-fold higher”. Further, the Km stood at 60 µM in data set [4] (substrate rRNase, 25° C., 50 mM phosphate buffer, pH 7.5, 1 mM EDTA); 4900 µM in data set [5]; 86 µM in data set [7]. Besides, the kcat in data set [4] (substrate rRNase, 25° C., 50 mM phosphate buffer, pH 7.5, 1 mM EDTA, thiols oxidized per minute) stood at 22.33 s⁻¹; in data set [5] (thiols oxidized per minute), 29.33 s⁻¹; in data set [7] (thiols oxidized per minute) it was 31.33 s⁻¹. For the same molecule, the “Is EDTA inhibitory?” value in data set [6] is listed as “No”. In addition, the “Is activity stimulated by added Ferrous iron?” value in data set [8] is “No”.
